Substrate in series [1]: CCCCCC=O
Put plainly: in vivo luminescence of E. coli cells, aldehyde titration, nonlinear fit. As to conditions: whole E. coli K12 MG1655 pABX cells; apparent constant; cellular FMNH2 and O2. Type of series: cell-based, Photorhabdus luminescens.

Substrate in series [2]: CCCCCCCCC=O
Described as above. As to conditions: whole E. coli K12 MG1655 pABX cells; apparent constant; cellular FMNH2 and O2. The series is classed as cell-based, Photorhabdus luminescens.

The values below come from article doi:10.1101/2023.02.27.530324v2.

In general, Km refers to the concentration of substrate that gives half-maximal velocity.

B1: PlLuxAB (Photorhabdus luminescens) (protein)
chain: MKFGNFLLTYQPPQFSQTEVMKRLVKLGRISEECGFDTVWLLEHHFTEFGLLGNPYVAAAYLLGATKKLNVGTAAIVLPTAHPVRQLEDVNLLDQMSKGRFRFGICRGLYNKDFRVFGTDMNNSRALAECWYGLIKNGMTEGYMEADNEHIKFHKVKVNPAAYSRGGAPVYVVAESASTTEWAAQFGLPMILSWIINTNEKKAQLELYNEVAQEYGHDIHNIDHCLSYITSVDHDSIKAKEICRKFLGHWYDSYVNATTIFDDSDQTRGYDFNKGQWRDFVLKGHKDTNRRIDYSYEINPVGTPQECIDIIQKDIDATGISNICCGFEANGTVDEIIASMKLFQSDVMPFLKEKQRSLLY
As to B1, the Km in series [1] turned out to be 7 ± 2 mM; in series [2], 0.025 ± 0.002 mM.
